Data published in doi:10.1101/2024.11.26.625467.

Molecular target: KS17 N2 NA (neuraminidase head of H3N2 A/Kansas/14/2017) (influenza A virus H3N2 A/Kansas/14/2017)
Experiment: cryo-EM structure

With “KS17 N2 NA (neuraminidase head of H3N2 A/Kansas/14/2017) (domain or fragment)” the stoichiometry N was 4.
